Assay results as given in the Immune Epitope Database (IEDB).

Key:
Assay in all cases: IEDB peptide-MHC binding, purified MHC/competitive/radioactivity; filed as Kd, often an IC50 or EC50 that approximates it; ≥ and ≤ were set here for values at or beyond the usual limits of such assays
Conditions in all cases: source organism: Homo sapiens
HLA-B*39:01 = molecular target: HLA-B*39:01
HLA-B*38:01 = molecular target: HLA-B*38:01
HLA-B*39:06 = molecular target: HLA-B*39:06

Sequence	Kd (HLA-B*39:01) [nM]	Kd (HLA-B*38:01) [nM]	Kd (HLA-B*39:06) [nM]
FLFLFAVG	17900	≥ 50000	405
FRLLCALTSL	290	2760	7.4
MRLLPLLA	62	≥ 44500	41
NHSSPCLEQF	≥ 25700	–	≥ 50000
NRVMLPKA	85	–	41
NRVMLPKAA	35	≥ 50000	14
SASIPLTVVA	≥ 30900	≥ 50000	310
SHLVEALYL	5250	10	≥ 35600
SHVAVENAL	11	321	696
THFPHQVIL	73	142	2600
TNLFLFLFAV	3950	6690	354
WMRLLPLLA	865	≥ 50000	155
YHFLQIPT	660	9750	151
